According to the DeepSol protein solubility set:

Experiment: soluble on expression in E. coli; label from the status in PepcDB or PDB records

Sequence	soluble on expression in E. coli
GPLGSMPEVRFQQQLEQLNSMGFINREANLQALIATGGDINAAIERLLGSQLS	soluble
MSLDGQGEAVVEGHEAALLLSESRASVDPELRSAIATLPESMRRVALYHFGWQHADGTPAAGNAGKAIRPALVLTAAAALGGPGARAAAVRAAAAVELVHNFTLLHDDVMDRDATRRHRPTAWTVFGDADAILAGDALQALALRLFAADPHPASAAAATRLADCVMELCEGQHADTAMERRPPDEVTLDETLVMAEAKTGALLGCACAVGALYAGAATEDVEALDAFGREAGMAFQLIDDVIGIWGDPRHTGKPAGADLAARKKSLPVVAALTSGTPAAAELAELYTGPYDENKEDLERTALAVERAGGRDWAQAQAADRMARAMQELARAVPEPEAAGGLLALAEFVTRRSTEGHHHHHH	soluble
MSLDANVRTVKWNGIPLHEASSAIVKEETNGDFYLTVRYPITDSGIYQLIKEDMLIKSPVPVLGAQLFRIKKPIENDDSMDITAYHVSDDIMKRSITPVSVVGQGCAMALSQMVQNAKTGLGDFSFTSDIMDSRTFNTTETETLYSVLMDGKHSIVGTWEGELVRDNFALSIKRSRGADRGVVITTHKNLKSYQRTKNSQGVVTRIHARSTFKPDGAEDEVTLRVSVDSPLINSYPYINEKEYENNNAETVEDLRKWAEAKFTNEGIDKVSDAIEIEAYELDGQVVNLGDTVNLKSRKHSADLYKKAIAYEFNALTEEYISITFDDKPGVGGSGVSSGLSNVADAILVASATAQDVAVQRAVKNANAAFDAEFGKTKTKINDDIEIAKAKVESFKSELSNRMDNQLLPLATEAKNLASQAQADLTRKEIELRAELNREGHHHHHH	not soluble
SNAKELIQNIIEESYTDSQFTLSVLSEKLDLSSGYLSIMFKKNFGIPFQDYLLQKRMEKAKLLLLTTELKNYEIAEQVGFEDVNYFITKFKKYYQITPKQYRE	soluble
AASPPTEEAVVATEPLTREDLIAYLASGCKSKEKWRIGTEHEKFGFEVNTLRPMKYDQIAELLNSIAERFEWEKVMEGDKIIGLKQGKQSISLEPGGQFELSGAPLETLHQTCAEVNSHLYQVKAVAEEMGIGFLGMGFQPKWRREDIPTMPKGRYDIMRNYMPKVGSLGLDMMLRTCTVQVNLDFSSEADMIRKFRAGLALQPIATALFANSPFTEGKPNGFLSMRSHIWTDTDKDRTGMLPFVFDDSFGFEQYVDYALDVPMYFAYRNGKYVDCTGMTFRQFLAGKLPCLPGELPTYNDWENHLTTIFPEVRLKRYMEMRGADGGPWRRLCALPAFWVGLLYDEDVLQSVLDLTADWTPAEREMLRNKVPVTGLKTPFRDGLLKHVAEDVLKLAKDGLERRGYKEVGFLNAVTEVVRTGVTPAENLLEMYNGEWGQSVDPVFQELLY	soluble
SSDLEDDETPQLSAHALAALQEFYAEQKQQIEPGEDDKYNIGIIEENWQLSQFWYSQETALQLAQEAIAAVGEGGRIACVSAPSVYQKLRELCRENFSIYIFEYDKRFAMYGEEFIFYDYNNPLDLPERIAAHSFDIVIADPPYLSEECLRKTSETVKYLTRGKILLCTGAIMEEQAAELLGVKMCTFVPRHTRNLANEFRCYVNYDSGLDCGI	soluble
MGSDKIHHHHHHMTGTTENDNTGEDEKPKDEECAAIEHKDKFNPTAYLNSFYKTASEDTAMQIVLFFLPGILYRLPQKVRSVLDLGAGPTVYLPISLRDRAENIYTSDYAPANRDTLINWIEDKSDFDWDNVCSWIANIEASMETGKQMQNKTRKLMRAVLDVNVHESPVVQSIVWKENEQVQVPDKFQVVSTVFCLEYSCETLEAYFRAVRSACSLIDEGGILIQGGVLDATTYNFGGKTFRCHRLKQAHIIESLKANGMATTAEQGYKFITHDDIFLLVSKKL	not soluble
MGSDKIHHHHHHMTMPVPHAGPTPLCSNRMQVHSITQETPDVWTISLVNHDFYPYQPGQYALVSIANSEETLRAYTISSSPGLSRFITLTVRRLDDGVGSRWLTQTLKIGDYLWLSDAQGEFTCANAVSDRYLMAAAGCGVTPIMSMCRWLLANKPQIDIHIIFNVRNPQQVIFASEWQDLVQRYPQQLHLTLMAEFDAAPGFLAGRISGDLLVERVPDITNRTVMTCGPAPYMNQIETLSQQLGVASNRIFKEQFRPTDEVVDEDADQITLTISRPLKNLRVPVGISLLAALEANKVHVLAACRAGVCGSCKTRVLSGKYTTTSTMTLTPAEIEQGYVLACSCQLQGDTVLA	not soluble
